“And” between values parts separate entries of the source, which are not always exact repeats. Equal entries are not always repeated.
Molecular target: the molecule itself
Assay: cryo-EM structure

B1: FliF (flagellar MS-ring protein) from Salmonella enterica serovar Typhimurium (natural protein)
chain: MSATASTATQPKPLEWLNRLRANPRIPLIVAGSAAVAIVVAMVLWAKTPDYRTLFSNLSDQDGGAIVAQLTQMNIPYRFANGSGAIEVPADKVHELRLRLAQQGLPKGGAVGFELLDQEKFGISQFSEQVNYQRALEGELARTIETLGPVKSARVHLAMPKPSLFVREQKSPSASVTVTLEPGRALDEGQISAVVHLVSSAVAGLPPGNVTLVDQSGHLLTQSNTSGRDLNDAQLKFANDVESRIQRRIEAILSPIVGNGNVHAQVTAQLDFANKEQTEEHYSPNGDASKATLRSRQLNISEQVGAGYPGGVPGALSNQPAPPNEAPIATPPTNQQNAQNTPQTSTSTNSNSAGPRSTQRNETSNYEVDRTIRHTKMNVGDIERLSVAVVVNYKTLADGKPLPLTADQMKQIEDLTREAMGFSDKRGDTLNVVNSPFSAVDNTGGELPFWQQQSFIDQLLAAGRWLLVLVVAWILWRKAVRPQLTRRVEEAKAAQEQAQVRQETEEAVEVRLSKDEQLQQRRANQRLGAEVMSQRIREMSDNDPRVVALVIRQWMSNDHE
- stoichiometry N: 33 and 34 and 32 and 35
